# From patent US8993741B2, “SMNdelta7 degron: novel compositions and methods of use” (The Trustees of the University of Pennsylvania, priority 2009, dated 2015)
# B1: SMNΔ7: SMN protein from exon 7 skipping, lacks C-terminal 16 amino acids and acquires EMLA (protein, listed as Homo sapiens)
# chain: MAMSSGGSGGGVPEQEDSVLFRRGTGQSDDSDIWDDTALIKAYDKAVASFKHALKNGDICETSGKPKTTPKRKPAKKNKSQKKNTAASLQQWKVGDKCSAIWSEDGCIYPATIASIDFKRETCVVVYTGYGNREEQNLSDLLSPICEVANNIEQNAQENENESQVSTDESENSRSPGNKSDNIKPKSAPWNSFLPPPPPMPGPRLGPGKPGLKFNGPPPPPPPPPPHLLSCWLPPFPSGPPIIPPPPPICPDSLDDADALGSMLISWYMSGYHTGYYMEMLA
# Assays:
# [1] = system: S5 cells; test: Rescue of S5 cell viability after tetracycline depletion of SMN; type: cell-based, chicken; settings: retroviral expression, one week after tetracycline (1 μg/ml)
# Method: FIG. 4, comprising FIG. 4A through FIG. 4D, is a series of images depicting the functionality of SMNΔ7^S270A in snRNP assembly and its ability to rescue SMN-deficient cells. FIG. 4 A is a series of panels depicting S5 cells cultured in the presence of tetracycline (1 μg/ml) to deplete endogenous SMN and infected with retroviruses expressing SMN, SMNΔ7, or SMNΔ7^S270A. FIG. 4B is a graph depicting cell growth as in FIG. 4A measured by monitoring the number of live cells at the indicated time points following tetracycline addition. FIG. 4C depicts the results of Western blot analyses of SMN protein in rescued cells (10 days after tetracycline addition). FIG. 4D is a graph depicting SMN complex activity (%) as measured by in vitro snRNP assembly on U4 snRNA in cytoplasmic extracts from rescued cells, using U4ΔSm RNA as a control.
# S5 cells were maintained and infected with retroviruses expressing SMN, SMNΔ7, and SMNΔ7^S270A as described (Wang et al., 2001, J. Biol. Chem. 276:9599).
# To determine whether SMNΔ7^S270A is a functional SMN protein, a previously established cell system, the S5 cell line, was used to investigate if SMNΔ7^S270A could rescue the viability of SMN-depleted cells. […]
# [2] = system: 293T cells; test: Level of HA-tagged SMN proteins, Western blot with anti-HA antibody; type: cell-based; settings: without MG132 treatment
# Method: FIG. 3, comprising FIG. 3A through FIG. 3D, is a series of images depicting the importance of residue S270 for the activity of the SMNΔ7-DEG through YG+EMLA. FIG. 3A is a schematic illustration depicting seven residues in the YG box that were each mutated to alanine, as indicated. […] depicts the results of Western blot analyses using an anti-HA tag antibody directed against HA-tagged SMN, SMNΔ7, and SMNΔ7^S270A expressed in 293T cells treated with DMSO or 10 μM MG132 (MG) for 16 hours. Fusion proteins were monitored by, and Magoh was used as a control. FIG. 3C is a graph depicting the quantification of HA-tagged proteins depicted in FIG. 3B and compared to HA-SMN without MG132 treatment. Protein amount (%) for SMNΔ7, and SMNΔ7^S270A are calculated relative to HA-SMN not treated with MG132, that is arbitrarily set to 100%. The fold change of each fusion protein amount upon MG132 treatment is indicated in red above the column. […]
# To identify specific residues in the SMN07-DEG that are important for its activity, mutagenesis of the YG box was performed wherein every second residue was converted to alanine in the context of full-length SMNΔ7 and determined the half-life of each in 293T cells. […] The levels of the tagged SMN proteins were then monitored by Western blots using anti-HA antibody (FIG. 3B).
# [3] = system: 293T cells; test: Protein stability assay: luciferase activity of Luc-fused constructs after CHX treatment; type: cell-based; settings: Luc fusion in 293T cells, CHX 0.1 mg/ml, up to 10 hours
# Source text: To construct plasmids expressing Luc-fused proteins, the luciferase gene was cloned into pcDNA3.1 vector at HindIII/KpnI sites, then DNA fragments encoding full-length wild type human SMN, SMNΔ7, several deletion mutants of SMNΔ7, and optiPEST were inserted into the KpnI/XhoI sites. SMNΔ7 mutants with single amino acid change were generated by mutating residues in YG+EMLA to alanine by Quickchange site-directed mutagenesis kit (Stratagene).
# Cells (293T cells) were transfected with plasmids expressing various constructs including Luc-SMN, Luc-SMNΔ7, GFP-YG+EMLA or GFP-NS. Forty-eight hours after transfection, the cells were treated with CHX (0.1 mg/ml) for various times as indicated and then assayed for luciferase activity. Luciferase activity at each time point was calculated by comparison to those at time 0, which was set to 100%. Luciferase activities were measured using One-Glo reagent (Promega).
# A reporter system that recapitulates the differential stability of full-length SMN and SMNΔ7 and allows quantitative assessment of SMNΔ7's instability determinants was developed. […] Forty-eight hours after transfection, cells were treated with the protein synthesis inhibitor cycloheximide (CHX), and luciferase activity was measured at time intervals of up to 10 hours. […]
molecule,measurement,setting,value
B1,rescue of viability of SMN-depleted S5 cells,[1],did not
same,amount of HA-tagged protein,[2],much lower than that of SMN
same,half-life (t1/2),[3],~3 h
